Results as given in publication PMC3716610.

Key:
Experiment in all cases: EMSA
Settings in all cases: 25 mM Tris-HCl pH 7.5, 50 mM KCl, 0.5 mM MgCl2, 100 µg/ml BSA, 1 mM DTT, 10% glycerol; 0.1 µM DNA; 37°C, 30 min; 1% agarose gel, ethidium bromide
[1] = test system: MBP-3B2ct (C-terminal DNMT3B2) (human)
[2] = test system: MBP-3B2ct (C-terminal DNMT3B2);GST-3B3ct (human;human)
[3] = test system: MBP-3B3ct (C-terminal DNMT3B3) (human)
[4] = test system: MBP-3B4ct (C-terminal DNMT3B4) (human)
[5] = test system: MBP-3B2ct (C-terminal DNMT3B2);GST-3B2ct (human;human)

With 420 bp DNMT3B PWWP fragment the Kd [1] was 0.22 µM, the Kd [2] was 1.5 µM and the Kd [3] was 0.16 µM. For the same substance, the Kd [4] was 2.42 µM and the Kd [5] was 0.4 µM.
